Consider 15 substances from article PMC5675868.

For data set [1], the system named is T1, Aux1LS20-His6 (p56) (Bacillus subtilis plasmid pLS20cat), ORF:1a040432.
T1 sequence: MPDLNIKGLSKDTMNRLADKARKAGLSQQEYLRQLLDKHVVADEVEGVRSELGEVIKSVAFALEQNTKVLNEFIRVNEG
Put plainly: EMSA. To be noted: EMSA: 20 mM Tris-HCl pH 8, 1 mM EDTA, 5 mM MgCl2, 0.5 mM DTT, 100 mM KCl, 10% glycerol, 0.05 mg/ml BSA; 20 min 30°C then 10 min on ice; 2% agarose, 0.5x TBE ….

Data set [2] deals with T2, Aux2LS20-His6 (p57) (Bacillus subtilis plasmid pLS20cat) (UniProt E9RJ22).
T2 sequence: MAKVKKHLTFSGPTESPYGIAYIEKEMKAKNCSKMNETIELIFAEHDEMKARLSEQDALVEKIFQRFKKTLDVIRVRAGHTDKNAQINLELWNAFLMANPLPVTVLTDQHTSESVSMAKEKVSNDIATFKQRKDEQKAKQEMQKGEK
Put plainly: EMSA. To be noted: EMSA: 20 mM Tris-HCl pH 8, 1 mM EDTA, 5 mM MgCl2, 0.5 mM DTT, 100 mM KCl, 10% glycerol, 0.05 mg/ml BSA; 20 min 30°C then 10 min on ice; 2% agarose, 0.5x TBE ….

Data set [3] has as its target Aux1_(LS20) with a C-terminal His(6) tag (Bacillus subtilis (plasmid pLS20cat)). Put plainly: AUC + other: dynamic light scattering; sedimentation velocity of the purified protein alone at 12 uM; diffusion coefficient from DLS combined with the S-value in the Svedberg equation; conditions as in Ramachandran et al., 2017.
Data set [4] has the same target. Put plainly: AUC; sedimentation equilibrium of the purified protein alone at 12 uM, best fit to a single species model; conditions as in Ramachandran et al., 2017.
Data set [5] has as its target Aux2_(LS20) with a C-terminal His(6) tag (Bacillus subtilis (plasmid pLS20cat)). In words: AUC + other: dynamic light scattering; sedimentation velocity of the purified protein alone at 12 uM; diffusion coefficient from DLS combined with the S-value in the Svedberg equation; conditions as in Ramachandran et al., 2017.
The target is the same in data set [6]. Put plainly: AUC; sedimentation equilibrium of the purified protein alone at 12 uM, best fit to a single species model; conditions as in Ramachandran et al., 2017.

Consider “AAATCACCTAAATAATGGTTGAACATAAATGTTTTTTTTATGTGCATTCAGCAATAAATCTGGTACCACGAAAAAACAAACCGCACTGCGGTTTCACCATGCAAATGGTGCCAGTTTCCCCTTATGCTCTTTCCTTTTCCACCCCCTCCTTCCTTCGGAATCGGGGGCCGGCTTTTTGCTGCCGCAAAAAGCCTTGGAAA (double strand) [F27]”, for which the binding result in data set [1] is on record as “binds”; in data set [2] it was “binds more weakly”.

Regarding “ACGAGCAAAGAAATGCTAGGTGAACTTGAAAAACGGAATGAATTATTGAAGAAAAGAAAGAGCAATCTCGTCATCGAAGACTAAATTTCTGTATGGAAAACAGTTATTTTTCGTGTGCATAAAATAAAGATTTATGTGCATTTAGTTCTAAATCACCTAAATAATGGTTGAACATAAATGTTTTTTTTATGTGCATTCAGC (double strand) [F21]”, the binding result in data set [2] is listed as “binds”.

Turning to “ATGGTGAAACCGCAGTGCGGTTTGTTTTTTCGTGGTACCAGATTTATTGCTGAATGCACATAAAAAAAACATTTATGTTCAACCATTATTTAGGTGATTTAGAACTAAATGCACATAAATCTTTATTTTATGCACACGAAAAATAACTGTTTTCCATACAGAAATTTAGTCTTCGATGACGAGATTGCTCTTTCTTTTCT (double strand) [F23]”, the binding entry in data set [1] and in data set [2] was “binds” each time.

The stoichiometry N is a count of units in the complex or per binding partner. “Aux1_(LS20) with a C-terminal His(6) tag (natural protein)”: the stoichiometry N in data set [3] and in data set [4] was 4 each time.

Take “Aux2_(LS20) with a C-terminal His(6) tag (natural protein)”: the stoichiometry N in data set [5] and in data set [6] was 6 each time.

With “CAGTTATTTTTCGTGTGCATAAAATAAAGATTTATGTGCATTTAGTTCTAAATCACCTAAATAATGGTTGAACATAAATGTTTTTTTTATGTGCATTCAGCAATAAATCTGGTACCACGAAAAAACAAACCGCACTGCGGTTTCACCATGCAAATGGTGCCAGTTTCCCCTTATGCTCTTTCCTTTTCCACCCCCTCCTTC (double strand) [F25]”, the binding result in data set [1] and in data set [2] was “binds” in each case.

For “CATCGATTTCTGCACATTACTTTGCAACGATCTGTTCAAATAAGTGTTTCTTTTTCCAAGGCTTTTTGCGGCAGCAAAAAGCCGGCCCCCGATTCCGAAGGAAGGAGGGGGTGGAAAAGGAAAGAGCATAAGGGGAAACTGGCACCATTTGCATGGTGAAACCGCAGTGCGGTTTGTTTTTTCGTGGTACCAGATTTATTG (double strand) [F29]”, the binding result in data set [1] is recorded as “binds”; in data set [2] it was “no binding”.

Take “CGAAGACTAAATTTCTGTATGGAAAACAGTTATTTTTCGTGTGCATAAAATAAAGATTTATGTGCATTTAGTTCTAAATCACCTAAATAATGGTTGAACATAAATGTTTTTTTTATGTGCATTCAGCAATAAATCTGGTACCACGAAAAAACAAACCGCACTGCGGTTTCACCATGCAAATGGTGCCAGTTTCCCCTTAT (double strand) [F24]”: the binding entry in data set [1] and in data set [2] was “binds” in each case.

For “CGGCATTTGTTAACGCTCCTTTTCATCGATTTCTGCACATTACTTTGCAACGATCTGTTCAAATAAGTGTTTCTTTTTCCAAGGCTTTTTGCGGCAGCAAAAAGCCGGCCCCCGATTCCGAAGGAAGGAGGGGGTGGAAAAGGAAAGAGCATAAGGGGAAACTGGCACCATTTGCATGGTGAAACCGCAGTGCGGTTTGT (double strand) [F30]”, the binding entry in data set [2] was “no binding”.

As for “GCAAATGGTGCCAGTTTCCCCTTATGCTCTTTCCTTTTCCACCCCCTCCTTCCTTCGGAATCGGGGGCCGGCTTTTTGCTGCCGCAAAAAGCCTTGGAAAAAGAAACACTTATTTGAACAGATCGTTGCAAAGTAATGTGCAGAAATCGATGAAAAGGAGCGTTAACAAATGCCGGATCTCAACATCAAAGGTCTTTCAA (double strand) [F31]”, in data set [2], the binding result is reported as “no binding”.

Turning to “GCTCTTTCCTTTTCCACCCCCTCCTTCCTTCGGAATCGGGGGCCGGCTTTTTGCTGCCGCAAAAAGCCTTGGAAAAAGAAACACTTATTTGAACAGATCGTTGCAAAGTAATGTGCAGAAATCGATGAAAAGGAGCGTTAACAAATGCCGGATCTCAACATCAAAGGTCTTTCAAAAGATACAATGAATAGGCTTGCGGA (double strand) [F32]”, the binding entry in data set [2] is on record as “no binding”.

“TAAAGATTTATGTGCATTTAGTTCTAAATCACCTAAATAATGGTTGAACATAAATGTTTTTTTTATGTGCATTCAGCAATAAATCTGGTACCACGAAAAAACAAACCGCACTGCGGTTTCACCATGCAAATGGTGCCAGTTTCCCCTTATGCTCTTTCCTTTTCCACCCCCTCCTTCCTTCGGAATCGGGGGCCGGCTTT (double strand) [F26]”: the results for the binding entry in data set [1] and in data set [2] were “binds” and “binds more weakly”, respectively.

In the case of “TAAATGTTTTTTTTATGTGCATTCAGCAATAAATCTGGTACCACGAAAAAACAAACCGCACTGCGGTTTCACCATGCAAATGGTGCCAGTTTCCCCTTATGCTCTTTCCTTTTCCACCCCCTCCTTCCTTCGGAATCGGGGGCCGGCTTTTTGCTGCCGCAAAAAGCCTTGGAAAAAGAAACACTTATTTGAACAGATCG (double strand) [F28]”, the binding result is “binds” in data set [1] and “binds more weakly” in data set [2].

In the case of “TGAGAAAGTCCTGCCTTCCTCGCTTTATCCGCAAGCCTATTCATTGTATCTTTTGAAAGACCTTTGATGTTGAGATCCGGCATTTGTTAACGCTCCTTTTCATCGATTTCTGCACATTACTTTGCAACGATCTGTTCAAATAAGTGTTTCTTTTTCCAAGGCTTTTTGCGGCAGCAAAAAGCCGGCCCCCGATTCCGAAGG (double strand) [F33]”, the binding result in data set [2] is listed as “no binding”.

Regarding “TTTTTCGTGGTACCAGATTTATTGCTGAATGCACATAAAAAAAACATTTATGTTCAACCATTATTTAGGTGATTTAGAACTAAATGCACATAAATCTTTATTTTATGCACACGAAAAATAACTGTTTTCCATACAGAAATTTAGTCTTCGATGACGAGATTGCTCTTTCTTTTCTTCAATAATTCATTCCGTTTTTCAAG (double strand) [F22]”, the binding entry in data set [1] and in data set [2] was “binds” in each case.
